From article PMC7491320, “Pdc2/Pat1 increases the range of decay factors and RNA bound by the Lsm1–7 complex”

How the values were obtained:
Lsm1-7 complex [1] = target: T1, Lsm1-7 complex (Schizosaccharomyces pombe, UniProt P87173;O94408;Q9Y7M4;O14352;O42978;Q9UUI1;O74499 …); test: SEC-MALS; monomeric complex; FP: 200 mM NaCl, 20 mM HEPES pH 7.0, 1 mM DTT, 5 mM MgCl2, 0.3 ug/uL acetylated BSA, 500 pM 5'-FAM RNA, 22 C; details: protein: recombinant; tags: N-terminal His6-TEV on Lsm1, TEV-treated; copies: 1;1;1;1;1;1;1
[2] = target: T2, PatMC (Pat1/Pdc2 middle and C-terminal domains);Lsm1-7 complex (Schizosaccharomyces …, UniProt O42958;P87173;O94408;Q9Y7M4;O14352;O42978;Q9UUI1;O74499 …, |); test: SEC-MALS; stoichiometric RNA; dimeric and tetrameric assemblies; FP: 200 mM NaCl, 20 mM HEPES pH 7.0, 1 mM DTT, 5 mM MgCl2, 0.3 ug/uL acetylated BSA, 500 pM 5'-FAM RNA, 22 C; details: protein: recombinant;recombinant; tags: none stated in coexpressed complex;N-terminal His6-TEV on Lsm1, TEV-treated; copies: 1;1;1;1;1;1;1;1
Lsm1-7 complex [3] = target: T1, Lsm1-7 complex; test: fluorescence polarization; 5 mM Mg2+; strongly favored; FP: 200 mM NaCl, 20 mM HEPES pH 7.0, 1 mM DTT, 5 mM MgCl2, 0.3 ug/uL acetylated BSA, 500 pM 5'-FAM RNA, 22 C; details: protein: recombinant; tags: N-terminal His6-TEV on Lsm1, TEV-treated; copies: 1;1;1;1;1;1;1; label: 5'-FAM
[4] = target: T2, PatMC (Pat1/Pdc2 middle and C-terminal …); test: fluorescence polarization; 5 mM Mg2+; Hill ~1; affinity not affected by PatMC; FP: 200 mM NaCl, 20 mM HEPES pH 7.0, 1 mM DTT, 5 mM MgCl2, 0.3 ug/uL acetylated BSA, 500 pM 5'-FAM RNA, 22 C; details: protein: recombinant;recombinant; tags: none stated in coexpressed complex;N-terminal His6-TEV on Lsm1, TEV-treated; copies: 1;1;1;1;1;1;1;1; label: 5'-FAM

UUUUUUUUUUUUUUU (ssRNA) [U15 (SEC-MALS)]: binds (Lsm1-7 complex [1]); binds [2].

UUUUUUUUUUUUUUU (ssRNA) [U15 (FAM)]: binds (Lsm1-7 complex [3]); binds [4].
